Source: US12583895B2, “Polypeptides for restoring endothelial function and methods of use thereof” (Vanderbilt University, priority 2019, dated 2026)
Non-standard residues stand in square brackets, D forms with d. No end group written: not given here. pS = N[C@@H](COP(=O)(O)O)C(=O)O

What was measured:
p38 MAPK γ isoform = target: T1, p38 MAPK γ isoform (Homo sapiens, UniProt P53778); assay: SelectScreen kinase profiling; assay type: biochemical; conditions: NiPp 100 μM
T1 sequence (P53778 1-367): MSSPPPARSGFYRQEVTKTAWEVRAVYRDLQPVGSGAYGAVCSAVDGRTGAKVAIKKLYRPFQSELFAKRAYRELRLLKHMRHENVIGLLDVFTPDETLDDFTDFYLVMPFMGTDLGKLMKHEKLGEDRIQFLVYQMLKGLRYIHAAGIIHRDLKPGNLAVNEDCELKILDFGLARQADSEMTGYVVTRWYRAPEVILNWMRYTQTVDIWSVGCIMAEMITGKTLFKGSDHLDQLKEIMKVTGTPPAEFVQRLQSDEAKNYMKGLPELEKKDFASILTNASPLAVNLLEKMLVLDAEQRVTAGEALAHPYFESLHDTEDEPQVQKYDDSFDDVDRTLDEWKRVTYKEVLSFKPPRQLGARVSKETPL
Protocol: (§1) Kinase profiling. NiPp was dissolved in DMSO, screened at a single concentration of 100 μM using in vitro kinase assays (SelectScreen Kinase Profiling Service; ThermoFisher Scientific, Madison WI) including the Z'LYTE and Adapta kinase activity assays and the LanthaScreen Eu Kinase Binding Assay). Candidate interactions were predicted using STRING Version 11 (www.string-db-org) with the human database at confidence=0.7.
(§2) Since NiPp treatment was associated with decreased phosphorylation of p38 MAPK in RA, a mechanism of NiPp function can kinase inhibition. Therefore, a kinase profiling assay was performed to determine the effect of NiPp on the activity of a panel of kinases in vitro. The top two kinases inhibited by NiPp were MSK1 and p38 MAPKα. Inhibition to the p38 MAPKα isoform appeared to be specific as inhibition by NiPp to the other isoforms (β, δ, and γ) in the kinaseprofiling screen were only at 5, 3, and 3% respectively. Despite high sequence homology, the isoforms have difference in tissue expression, upstream kinase activators and downstream substrates. The p38 MAPKα isoform, initially identified as a protein that underwent phosphorylation in response to endotoxin treatment and hyperosmolarity shock, plays a role in endothelial dysfunction in that inhibition of this isoform leads to improved endothelial function in animal models of cardiovascular diseases including cardiac hypertrophy, balloon injury, salt/fat induced hypertension and in hypercholesterolemic patients. The α-isoform is also a key regulator of pro-inflammatory cytokine production and itself can be activated by IL1-β. MSK1, a downstream kinase of the p38 MAPK activation (FIG. 19), has complex cell-dependent roles in inflammatory responses. In endothelial cells, MSK1 promotes CREB activation in response to TNFα.

p38 MAPK δ isoform = target: T2, p38 MAPK δ isoform (Homo sapiens, UniProt O15264); assay: SelectScreen kinase profiling; assay type: biochemical; conditions: NiPp 100 μM
T2 sequence (O15264 1-365): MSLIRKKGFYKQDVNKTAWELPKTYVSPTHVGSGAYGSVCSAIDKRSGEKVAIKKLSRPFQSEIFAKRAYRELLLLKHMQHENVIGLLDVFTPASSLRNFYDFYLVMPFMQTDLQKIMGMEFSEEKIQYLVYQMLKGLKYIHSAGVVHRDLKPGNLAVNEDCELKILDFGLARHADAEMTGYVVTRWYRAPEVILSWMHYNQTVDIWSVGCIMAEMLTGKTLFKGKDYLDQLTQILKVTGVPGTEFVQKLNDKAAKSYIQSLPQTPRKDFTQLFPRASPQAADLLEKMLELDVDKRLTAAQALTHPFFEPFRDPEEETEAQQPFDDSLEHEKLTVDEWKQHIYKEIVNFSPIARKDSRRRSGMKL
Protocol: as §1, §2

CKD18 = CKD18 (Homo sapiens, UniProt Q07002); assay: SelectScreen kinase profiling; assay type: biochemical; conditions: NiPp 100 μM; kinases inhibited at >40% are listed
CKD18, sequence (Q07002 whole entry): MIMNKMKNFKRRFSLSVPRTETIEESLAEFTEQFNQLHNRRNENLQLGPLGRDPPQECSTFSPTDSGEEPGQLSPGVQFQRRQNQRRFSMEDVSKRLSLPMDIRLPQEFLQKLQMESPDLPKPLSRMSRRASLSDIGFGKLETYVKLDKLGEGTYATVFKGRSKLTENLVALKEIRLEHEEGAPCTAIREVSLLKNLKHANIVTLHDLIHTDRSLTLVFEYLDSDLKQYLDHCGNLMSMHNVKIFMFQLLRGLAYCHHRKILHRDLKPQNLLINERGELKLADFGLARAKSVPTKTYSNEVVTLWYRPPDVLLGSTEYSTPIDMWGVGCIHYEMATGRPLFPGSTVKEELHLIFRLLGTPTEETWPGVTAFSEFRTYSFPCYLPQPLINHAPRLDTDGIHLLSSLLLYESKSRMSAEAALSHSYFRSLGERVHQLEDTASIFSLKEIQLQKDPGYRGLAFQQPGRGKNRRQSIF
CKD18, sequence (Q8ND76 whole entry partner): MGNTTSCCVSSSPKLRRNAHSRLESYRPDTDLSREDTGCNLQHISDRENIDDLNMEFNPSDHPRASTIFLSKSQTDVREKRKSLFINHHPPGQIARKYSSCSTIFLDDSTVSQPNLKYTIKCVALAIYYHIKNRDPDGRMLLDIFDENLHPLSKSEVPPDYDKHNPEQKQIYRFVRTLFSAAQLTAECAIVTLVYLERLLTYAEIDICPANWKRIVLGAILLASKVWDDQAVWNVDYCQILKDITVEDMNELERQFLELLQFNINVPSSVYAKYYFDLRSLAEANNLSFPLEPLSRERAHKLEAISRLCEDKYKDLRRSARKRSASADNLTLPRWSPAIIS
Protocol: as §1
(§3) As injury leads to increased p38 MAPK phosphorylation and decreased Niban phosphorylation, one of the mechanisms by which NiPp restores function after endothelial injury can be kinase inhibition. A kinase profiling was performed using three different profiling platforms that measure activity and kinase/substrate binding. Kinases of which activity or substrate binding were inhibited by NiPp (100 μM) at >40% are listed and shown in a kinase dendrogram (FIGS. 14A, 14B, 19A and 19B).
(§4) The top two candidate kinase targets of NiPp were mitogen- and stress-activated kinase 1 (MSK1; also known as RPS6KA5) and p38 MAPKα (MAPK14), which were inhibited by 66% and 61%, respectively. MSK1 is an AGC kinase of the RSK family that is phosphorylated by ERK and p38 MAPK in response to cellular stress. Other kinases inhibited by the NiPp include CKD18 of the CMGC kinase family), FGFR1 of the TK family, and the PIK3R3 kinase (FIGS. 19A and 19B).

PIK3R3 kinase = PIK3R3 kinase (Homo sapiens, UniProt Q92569); assay: SelectScreen kinase profiling; assay type: biochemical; conditions: NiPp 100 μM; kinases inhibited at >40% are listed
PIK3R3 kinase, sequence (P42336 whole entry partner): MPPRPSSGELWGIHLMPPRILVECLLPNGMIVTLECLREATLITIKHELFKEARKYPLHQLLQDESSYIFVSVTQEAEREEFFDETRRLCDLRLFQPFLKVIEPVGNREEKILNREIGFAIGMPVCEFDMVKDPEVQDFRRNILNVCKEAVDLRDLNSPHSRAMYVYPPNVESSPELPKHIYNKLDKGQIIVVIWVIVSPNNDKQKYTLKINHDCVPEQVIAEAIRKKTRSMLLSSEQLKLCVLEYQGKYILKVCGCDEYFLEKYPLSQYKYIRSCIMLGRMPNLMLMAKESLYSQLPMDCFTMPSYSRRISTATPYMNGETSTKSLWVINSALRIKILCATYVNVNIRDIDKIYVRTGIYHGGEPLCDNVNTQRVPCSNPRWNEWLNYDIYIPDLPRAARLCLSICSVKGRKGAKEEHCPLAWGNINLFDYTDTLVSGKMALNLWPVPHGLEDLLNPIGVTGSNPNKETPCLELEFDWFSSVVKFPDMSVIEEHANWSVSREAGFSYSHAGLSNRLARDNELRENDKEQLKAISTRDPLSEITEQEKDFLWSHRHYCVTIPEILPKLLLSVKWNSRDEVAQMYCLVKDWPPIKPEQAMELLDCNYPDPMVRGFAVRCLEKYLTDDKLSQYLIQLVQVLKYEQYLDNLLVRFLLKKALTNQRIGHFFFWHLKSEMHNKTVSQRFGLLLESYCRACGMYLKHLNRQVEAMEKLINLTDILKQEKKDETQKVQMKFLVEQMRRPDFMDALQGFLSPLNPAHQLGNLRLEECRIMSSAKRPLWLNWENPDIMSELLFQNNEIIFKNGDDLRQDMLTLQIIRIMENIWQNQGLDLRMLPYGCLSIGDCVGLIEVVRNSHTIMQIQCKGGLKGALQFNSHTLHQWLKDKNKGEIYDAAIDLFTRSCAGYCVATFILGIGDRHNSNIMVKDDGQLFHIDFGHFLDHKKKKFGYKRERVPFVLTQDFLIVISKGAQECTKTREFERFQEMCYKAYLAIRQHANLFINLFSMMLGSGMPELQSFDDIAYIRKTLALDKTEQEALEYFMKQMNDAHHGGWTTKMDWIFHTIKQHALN
Protocol: as §1, §3, §4

FGFR1 = FGFR1 (Homo sapiens, UniProt P11362); assay: SelectScreen kinase profiling; assay type: biochemical; conditions: NiPp 100 μM; kinases inhibited at >40% are listed
FGFR1, sequence (P11362 22-822): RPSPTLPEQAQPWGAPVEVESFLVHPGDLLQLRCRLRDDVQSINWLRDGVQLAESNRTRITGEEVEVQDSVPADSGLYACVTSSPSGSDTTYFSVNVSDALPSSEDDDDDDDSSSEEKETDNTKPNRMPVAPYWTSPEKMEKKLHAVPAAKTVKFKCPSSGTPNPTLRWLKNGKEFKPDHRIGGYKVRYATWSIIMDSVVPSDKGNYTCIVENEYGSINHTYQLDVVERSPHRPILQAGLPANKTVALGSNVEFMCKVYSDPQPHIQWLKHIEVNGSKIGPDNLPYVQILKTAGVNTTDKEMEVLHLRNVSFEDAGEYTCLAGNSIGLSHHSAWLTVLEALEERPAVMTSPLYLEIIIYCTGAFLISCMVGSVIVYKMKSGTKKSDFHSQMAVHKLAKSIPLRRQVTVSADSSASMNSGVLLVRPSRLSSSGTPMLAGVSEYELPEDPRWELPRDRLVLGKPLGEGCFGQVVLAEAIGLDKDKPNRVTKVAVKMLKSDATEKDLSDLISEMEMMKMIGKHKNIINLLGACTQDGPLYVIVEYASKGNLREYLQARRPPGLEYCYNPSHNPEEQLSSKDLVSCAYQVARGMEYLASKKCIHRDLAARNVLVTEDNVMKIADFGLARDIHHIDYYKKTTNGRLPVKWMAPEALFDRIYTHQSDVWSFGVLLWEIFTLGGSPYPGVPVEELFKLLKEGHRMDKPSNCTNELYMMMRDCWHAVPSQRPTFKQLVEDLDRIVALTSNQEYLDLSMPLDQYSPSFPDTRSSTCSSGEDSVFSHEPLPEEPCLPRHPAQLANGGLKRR
Protocol: as §1, §3, §4

p38 MAPK phosphorylation = p38 MAPK phosphorylation (Western blot) in rat aorta after subfailure stretch injury; assay type: cell-based; conditions: NiPp 500 μM, 1 h, immunoblot
Protocol: Freshly isolated rat aorta (RA) was subjected to subfailure stretch and incubated in PL in the absence (S) or presence of NiPp (500 μM) for 1 h at room temperature. […] The percent relaxation was determined as a change to the maximal PE-induced contraction. n=5 rats; #p<0.05, two-way ANOVA. […] Quantification of relative phosphorylation to total p38MAPK level is shown. N=10. *p<0.05, in one-way ANOVA with Tukey post-test. NiPp restores endothelial dysfunction and reduced p38 MAPK phosphorylation induced by stretch injury in RA.
Vascular injury and treatment of RA. Abdominal RA was subjected to subfailure stretch to the haptic endpoint (˜200% the resting length) for 10 s and repeated twice as previously described and a segment was reserved as non-stretched control. The tissues were then cut into 1-2 mm rings and incubated for 1 h at room temperature in PL with or without NiPp (500 μM). To induce acidotic injury, thoracic RA were cut into 1-2 mm rings and pretreated in the absence or presence of NiPp (500 μM) in PL for 30 min. […]
Western blot Analysis. […] The protein-antibody complexes were visualized and quantified using the Odyssey Infrared Imaging System. Phosphorylation was calculated as a ratio of the phosphorylated protein to total protein and was then normalized to the untreated tissues (Ctrl) with the control value set as 1.0.

YARAAARQARASPAARRA(pS)AILPG (YARAAARQARASPAARRA[pS]AILPG) [NiPp, Cell-permeant phosphopeptide mimetic of Niban: transduction domain … conjugated to the region surrounding serine 602 of Niban]
% inhibition of p38 MAPK γ isoform (p38 MAPK γ isoform): 3% | % inhibition of p38 MAPK δ isoform (p38 MAPK δ isoform): 3% | inhibition of CKD18 (CKD18): inhibited | inhibition of PIK3R3 kinase (PIK3R3 kinase): inhibited | inhibition of FGFR1 (FGFR1): inhibited | p38 MAPK phosphorylation relative to total p38 MAPK after stretch injury (p38 MAPK phosphorylation): reduced
